B1: nanobody 3-2A2-4 (VHH with 6xHis tag, for crystal structural analysis) (VHH)
VHH: QVQLQESGGGLVQPGESLRLSCAASGSISTLNVMGWYRQAPGKQRELVAQITLDGSPEYADSVKGRFTITKDGAQSTLYLQMNNLKPEDTAVYFCKLENGGFFYYWGQGTQVTVST
B2: nanobody Nb70 (VHH with 6xHis tag, for crystal structural analysis) (VHH)
VHH: QVQLVESGGGLVQAGGSLRLSCVASGRTFSRYAMGWFRQAPGKEREFVAVIEWDGGTSYYVDSVKGRFTISRDNAKNTVYLQMNSLKPEDTAVYYCAAGGNQYYSATYSIWNEYDFWGQGTQVTVSS
B3: VHH72, previously published nanobody (VHH)
VHH: QVQLQESGGGLVQAGGSLRLSCAASGRTFSEYAMGWFRQAPGKEREFVATISWSGGSTYYTDSVKGRFTISRDNAKNTVYLQMNSLKPDDTAVYYCAAAGLGTVVSEWDYDYDYWGQGTQVTVSS

Columns and labels:
[1] = target: T1, SARS-CoV-2 wild type receptor binding domain (RBD) (SARS-CoV-2, UniProt P0DTC2); experiment: crystal structure
[2] = target: T1, SARS-CoV-2 wild type receptor binding …; experiment: SPR

Binder | binding result [1] | binding result [2]
B1 | binds | –
B2 | binds | –
B3 | – | binds

— article doi:10.1101/2022.04.12.488087 (bioRxiv, 2022)
